These results are taken from publication PMC3426363 (Pharmaceutical research, 2011).

By Km is commonly meant the substrate concentration at which the rate is half of its maximum. As a reminder, the Vmax is the rate approached at saturating substrate.

Holding throughout (assay type): in vitro ADME, human
Substrate in data set [1]: O=c1c(O)c(-c2ccc(O)cc2)oc2cc(O)cc(O)c12
Description: UGT1A10 glucuronidation kinetics of flavonols. Conditions: other: UGT1A10, pH 6.5.

Substrate in data set [2]: O=c1c(O)c(-c2ccccc2)oc2cc(O)ccc12
Description: UGT1A10 glucuronidation kinetics of flavonols. Conditions: other: UGT1A10, pH 6.5.

Substrate in data set [3]: O=c1c(O)c(-c2ccccc2)oc2cc(O)cc(O)c12
Kind of data set: UGT1A10 glucuronidation kinetics of flavonols. Conditions: other: UGT1A10, pH 6.5.

Substrate in data set [4]: O=c1c(O)c(-c2ccc(O)cc2)oc2cc(O)cc(O)c12
Description: UGT1A7 glucuronidation kinetics of flavonols. The conditions noted are these: other: UGT1A7, pH 6.5.

Substrate in data set [5]: O=c1c(O)c(-c2ccccc2)oc2cc(O)ccc12
Description: UGT1A7 glucuronidation kinetics of flavonols. The conditions noted are these: other: UGT1A7, pH 6.5.

Substrate in data set [6]: O=c1c(O)c(-c2ccccc2)oc2cc(O)cc(O)c12
Kind of data set: UGT1A7 glucuronidation kinetics of flavonols. The conditions noted are these: other: UGT1A7, pH 6.5.

Substrate in data set [7]: O=c1c(O)c(-c2ccc(O)cc2)oc2cc(O)ccc12
Description: UGT1A1 glucuronidation kinetics of flavonols. The conditions noted are these: other: UGT1A1, pH 6.5.

Substrate in data set [8]: O=c1c(O)c(-c2ccc(O)cc2)oc2cc(O)cc(O)c12
Kind of data set: UGT1A1 glucuronidation kinetics of flavonols. Conditions: other: UGT1A1; formation of 7-O-glucuronide; pH 6.5.

Substrate in data set [9]: O=c1c(O)c(-c2ccccc2)oc2cc(O)ccc12
Description: UGT1A1 glucuronidation kinetics of flavonols. Conditions: other: UGT1A1, pH 6.5.

Substrate in data set [10]: O=c1c(O)c(-c2ccccc2)oc2cc(O)cc(O)c12
Description: UGT1A1 glucuronidation kinetics of flavonols. Conditions: other: UGT1A1, pH 6.5.

Substrate in data set [11]: O=c1c(O)c(-c2ccc(O)cc2)oc2cc(O)ccc12
Description: UGT1A9 glucuronidation kinetics of flavonols. The conditions noted are these: other: UGT1A9, pH 6.5.

Substrate in data set [12]: O=c1c(O)c(-c2ccc(O)cc2)oc2cc(O)cc(O)c12
Kind of data set: UGT1A9 glucuronidation kinetics of flavonols. The conditions noted are these: other: UGT1A9, pH 6.5.

Substrate in data set [13]: O=c1c(O)c(-c2ccccc2)oc2cc(O)ccc12
Kind of data set: UGT1A9 glucuronidation kinetics of flavonols. The conditions noted are these: other: UGT1A9, pH 6.5.

B1: UGT1A10 (Homo sapiens) (protein)
chain: GKLLVVPMDGSHWFTMQSVVEKLILRGHEVVVVMPEVSWQLERSLNCTVKTYSTSYTLEDQNREFMVFAHAQWKAQAQSIFSLLMSSSSGFLDLFFSHCRSLFNDRKLVEYLKESSFDAVFLDPFDTCGLIVAKYFSLPSVVFTRGIFCHHLEEGAQCPAPLSYVPNDLLGFSDAMTFKERVWNHIVHLEDHLFCQYLFRNALEIASEILQTPVTAYDLYSHTSIWLLRTDFVLDYPKPVMPNMIFIGGINCHQGKPLPMEFEAYINASGEHGIVVFSLGSMVSEIPEKKAMAIADALGKIPQTVLWRYTGTRPSNLANNTILVKWLPQNDLLGHPMTRAFITHAGSHGVYESICNGVPMVMMPLFGDQMDNAKRMETKGAGVTLNVLEMTSEDLENALKAVINDKSYKENIMRLSSLHKDRPVEPLDLAVFWVEFVMRHKGAPHLRPAAHDLTWYQYHSLDVIGFLLAVVLTVAFITFKCCAYGYRKCLGKKGRVKKAHKSKTH
Regarding B1, the Km in data set [1] (formation of 3-O-glucuronide) came to 2.44 ± 0.55 µM; in [1] (formation of 7-O-glucuronide), 3.34 ± 1.21 µM; in data set [2] (formation of 3-O-glucuronide), 6.66 ± 0.66 µM; in data set [2] (formation of 7-O-glucuronide), 8.74 ± 1.37 µM; in [3] (formation of 3-O-glucuronide) it was 4.49 ± 0.61 µM; in data set [3] (formation of 7-O-glucuronide), 3.96 ± 0.58 µM. Also, the Vmax came to 1.46 ± 0.16 nmol/mg/min in data set [1] (formation of 3-O-glucuronide); 1.10 ± 0.20 nmol/mg/min in data set [1] (formation of 7-O-glucuronide); 0.19 ± 0.01 nmol/mg/min in data set [2] (formation of 3-O-glucuronide); 0.26 ± 0.02 nmol/mg/min in [2] (formation of 7-O-glucuronide); 2.01 ± 0.14 nmol/mg/min in data set [3] (formation of 3-O-glucuronide); 0.77 ± 0.04 nmol/mg/min in data set [3] (formation of 7-O-glucuronide). Besides, the Vmax/Km in data set [1] (formation of 3-O-glucuronide) came to 600 µL/min/mg; in [1] (formation of 7-O-glucuronide), 330 µL/min/mg; in data set [2] (formation of 3-O-glucuronide), 30 µL/min/mg; in [2] (formation of 7-O-glucuronide), 30 µL/min/mg; in data set [3] (formation of 3-O-glucuronide) it was 450 µL/min/mg; in data set [3] (formation of 7-O-glucuronide) it was 190 µL/min/mg.

B2: UGT1A7 (Homo sapiens) (protein)
chain: GKLLVVPMDGSHWFTMQSVVEKLILRGHEVVVVMPEVSWQLGRSLNCTVKTYSTSYTLEDQDREFMVFADARWTAPLRSAFSLLTSSSNGIFDLFFSNCRSLFNDRKLVEYLKESCFDAVFLDPFDACGLIVAKYFSLPSVVFARGIFCHYLEEGAQCPAPLSYVPRLLLGFSDAMTFKERVWNHIMHLEEHLFCPYFFKNVLEIASEILQTPVTAYDLYSHTSIWLLRTDFVLEYPKPVMPNMIFIGGINCHQGKPVPMEFEAYINASGEHGIVVFSLGSMVSEIPEKKAMAIADALGKIPQTVLWRYTGTRPSNLANNTILVKWLPQNDLLGHPMTRAFITHAGSHGVYESICNGVPMVMMPLFGDQMDNAKRMETKGAGVTLNVLEMTSEDLENALKAVINDKSYKENIMRLSSLHKDRPVEPLDLAVFWVEFVMRHKGAPHLRPAAHDLTWYQYHSLDVIGFLLAVVLTVAFITFKCCAYGYRKCLGKKGRVKKAHKSKTH
Regarding B2, the Km in [4] (formation of 3-O-glucuronide) is recorded as 1.46 ± 0.32 µM; in data set [4] (formation of 7-O-glucuronide), 11.56 ± 2.91 µM; in data set [5] (formation of 3-O-glucuronide), 1.61 ± 0.14 µM; in [5] (formation of 7-O-glucuronide) it was 23.17 ± 6.96 µM; in data set [6] (formation of 3-O-glucuronide), 0.82 ± 0.08 µM; in data set [6] (formation of 7-O-glucuronide) it was 21.43 ± 6.09 µM. In addition, the maximum rate (Vmax) came out at 0.77 ± 0.04 nmol/mg/min in [4] (formation of 3-O-glucuronide); 1.10 ± 0.11 nmol/mg/min in [4] (formation of 7-O-glucuronide); 2.04 ± 0.07 nmol/mg/min in [5] (formation of 3-O-glucuronide); 0.44 ± 0.07 nmol/mg/min in data set [5] (formation of 7-O-glucuronide); 3.35 ± 0.11 nmol/mg/min in [6] (formation of 3-O-glucuronide); 2.46 ± 0.34 nmol/mg/min in [6] (formation of 7-O-glucuronide). In addition, the Vmax/Km in [4] (formation of 3-O-glucuronide) was 530 µL/min/mg; in [4] (formation of 7-O-glucuronide), 100 µL/min/mg; in data set [5] (formation of 3-O-glucuronide) it was 1270 µL/min/mg; in data set [5] (formation of 7-O-glucuronide), 20 µL/min/mg; in data set [6] (formation of 7-O-glucuronide) it was 110 µL/min/mg.

B3: UGT1A1 (Homo sapiens) (protein)
chain: HAGKILLIPVDGSHWLSMLGAIQQLQQRGHEIVVLAPDASLYIRDGAFYTLKTYPVPFQREDVKESFVSLGHNVFENDSFLQRVIKTYKKIKKDSAMLLSGCSHLLHNKELMASLAESSFDVMLTDPFLPCSPIVAQYLSLPTVFFLHALPCSLEFEATQCPNPFSYVPRPLSSHSDHMTFLQRVKNMLIAFSQNFLCDVVYSPYATLASEFLQREVTVQDLLSSASVWLFRSDFVKDYPRPIMPNMVFVGGINCLHQNPLSQEFEAYINASGEHGIVVFSLGSMVSEIPEKKAMAIADALGKIPQTVLWRYTGTRPSNLANNTILVKWLPQNDLLGHPMTRAFITHAGSHGVYESICNGVPMVMMPLFGDQMDNAKRMETKGAGVTLNVLEMTSEDLENALKAVINDKSYKENIMRLSSLHKDRPVEPLDLAVFWVEFVMRHKGAPHLRPAAHDLTWYQYHSLDVIGFLLAVVLTVAFITFKCCAYGYRKCLGKKGRVKKAHKSKTH
Consider B3, for which the Michaelis-Menten constant (Km) in [7] (formation of 3-O-glucuronide) was found to be 0.30 ± 0.05 µM; in data set [7] (formation of 7-O-glucuronide), 0.43 ± 0.10 µM; in [8], 0.13 ± 0.03 µM; in [9] (formation of 3-O-glucuronide), 1.57 ± 1.09 µM; in [9] (formation of 7-O-glucuronide), 1.04 ± 0.19 µM; in data set [10] (formation of 3-O-glucuronide), 0.31 ± 0.10 µM. Also, the Km in [10] (formation of 7-O-glucuronide) was 0.51 ± 0.08 µM. Further, the maximum rate (Vmax) stood at 0.68 ± 0.05 nmol/mg/min in data set [7] (formation of 3-O-glucuronide); 1.08 ± 0.13 nmol/mg/min in [7] (formation of 7-O-glucuronide); 1.38 ± 0.14 nmol/mg/min in data set [8]; 1.02 ± 0.54 nmol/mg/min in data set [9] (formation of 3-O-glucuronide); 3.04 ± 0.42 nmol/mg/min in [9] (formation of 7-O-glucuronide); 0.82 ± 0.14 nmol/mg/min in data set [10] (formation of 3-O-glucuronide). In data set [10] (formation of 7-O-glucuronide), the Vmax is on record as 4.59 ± 0.46 nmol/mg/min. Further, the Vmax/Km in data set [7] (formation of 3-O-glucuronide) is 2270 µL/min/mg; in data set [7] (formation of 7-O-glucuronide), 2520 µL/min/mg; in data set [8] it was 10620 µL/min/mg; in [9] (formation of 3-O-glucuronide), 650 µL/min/mg; in data set [9] (formation of 7-O-glucuronide), 2920 µL/min/mg; in [10] (formation of 3-O-glucuronide), 2650 µL/min/mg. Besides, the Vmax/Km in [10] (formation of 7-O-glucuronide) was 9000 µL/min/mg.

B4: UGT1A9 (Homo sapiens) (protein)
chain: GKLLVVPMDGSHWFTMRSVVEKLILRGHEVVVVMPEVSWQLGRSLNCTVKTYSTSYTLEDLDREFKAFAHAQWKAQVRSIYSLLMGSYNDIFDLFFSNCRSLFKDKKLVEYLKESSFDAVFLDPFDNCGLIVAKYFSLPSVVFARGILCHYLEEGAQCPAPLSYVPRILLGFSDAMTFKERVRNHIMHLEEHLLCHRFFKNALEIASEILQTPVTEYDLYSHTSIWLLRTDFVLDYPKPVMPNMIFIGGINCHQGKPLPMEFEAYINASGEHGIVVFSLGSMVSEIPEKKAMAIADALGKIPQTVLWRYTGTRPSNLANNTILVKWLPQNDLLGHPMTRAFITHAGSHGVYESICNGVPMVMMPLFGDQMDNAKRMETKGAGVTLNVLEMTSEDLENALKAVINDKSYKENIMRLSSLHKDRPVEPLDLAVFWVEFVMRHKGAPHLRPAAHDLTWYQYHSLDVIGFLLAVVLTVAFITFKCCAYGYRKCLGKKGRVKKAHKSKTH
Consider B4, for which the Km in data set [11] (formation of 3-O-glucuronide) is on record as 0.36 ± 0.03 µM; in data set [11] (formation of 7-O-glucuronide), 2.67 ± 0.56 µM; in [12] (formation of 3-O-glucuronide), 0.32 ± 0.03 µM; in data set [12] (formation of 7-O-glucuronide) it was 3.87 ± 0.59 µM; in data set [13] (formation of 3-O-glucuronide) it was 0.22 ± 0.04 µM; in data set [13] (formation of 7-O-glucuronide) it was 1.50 ± 0.26 µM. Further, the Vmax came to 2.62 ± 0.05 nmol/mg/min in [11] (formation of 3-O-glucuronide); 1.15 ± 0.08 nmol/mg/min in [11] (formation of 7-O-glucuronide); 1.92 ± 0.03 nmol/mg/min in data set [12] (formation of 3-O-glucuronide); 0.87 ± 0.05 nmol/mg/min in data set [12] (formation of 7-O-glucuronide); 4.60 ± 0.28 nmol/mg/min in data set [13] (formation of 3-O-glucuronide); 2.04 ± 0.09 nmol/mg/min in [13] (formation of 7-O-glucuronide). Moreover, the Vmax/Km turned out to be 7280 µL/min/mg in data set [11] (formation of 3-O-glucuronide); 430 µL/min/mg in data set [11] (formation of 7-O-glucuronide); 6000 µL/min/mg in data set [12] (formation of 3-O-glucuronide); 220 µL/min/mg in [12] (formation of 7-O-glucuronide); 20910 µL/min/mg in data set [13] (formation of 3-O-glucuronide); 1360 µL/min/mg in data set [13] (formation of 7-O-glucuronide).
